This is an account of results in article PMC12846431.

The target of the first experiment is TMR-NTT (TMR-labeled Serinc3 NTT(Cys16) peptide, MBP removed) (UniProt Q13530). The experiment can be described thus: fluorescence polarisation. The settings on record: read off a plot.
“complex of wild-type MBP-Nef with the α(1–398)/σ2 hemicomplex of AP2 (from UniProt Q90VU7;P18484;P53680) D123K”: the response worked out at 45 mP.

“complex of wild-type MBP-Nef with the α(1–398)/σ2 hemicomplex of AP2 (from UniProt Q90VU7;P18484;P53680) F121D” displayed a response of 20 mP.

For the substance “complex of wild-type MBP-Nef with the α(1–398)/σ2 hemicomplex of AP2 (from UniProt Q90VU7;P18484;P53680) L37D”, the response turned out to be 37 mP.

Regarding “complex of wild-type MBP-Nef with the α(1–398)/σ2 hemicomplex of AP2 (from UniProt Q90VU7;P18484;P53680) L112D”, the response was 16 mP.

As for “complex of wild-type MBP-Nef with the α(1–398)/σ2 hemicomplex of AP2 (from UniProt Q90VU7;P18484;P53680) W57A; L58A”, the response was found to be 55 mP.

In a further experiment the target is complex of wild-type MBP-Nef with the α(1–398)/σ2 hemicomplex of AP2 (HIV-1 (NL4.3) | not stated) (UniProt Q90VU7). The experiment can be described thus: fluorescence polarisation; α(1–398)/σ2 (20 µM) and MBP-Nef WT or mutant (30 µM) mixed 30 min at room temperature, then 200 nM TMR-NTT, 15 μL, 1 or 2 h at room temperature; single concentration; control is probe only.
Details: not given
The substance “TMR-NTT (TMR-labeled Serinc3 NTT(Cys16) peptide, MBP removed) (from UniProt Q13530 1-39)” gave an FP signal of 90 mP.
